The nature of this series: soluble on expression in E. coli; label from the status in PepcDB or PDB records.
“MSLSNTSASFGFKDVDASLKAGLVRGVFDRVAKNYDIMNDLMSGGVHRLWKDAVAARLNPQPGEVIIDCAGGTGDMARRFAKMARKAQERRGGPDATINIVDYNAEMIMAGIERGGEPEITWTVGDAQRLPLPDAYADAYVISFGIRNVTDINAALREARRVLKPGGRFLCLEFSRPVTEPLAKAYDAYSFKVIPQVGEWVAKDRDAYQYLVESIRRFPDQRTFAGMIEAAGFKRVTFTNFTGGVAALHQGWAIEGHHHHHH”: the “soluble on expression in E. coli” value is reported as “not soluble”.

As for “MTTWLYAGVDGGGTGCRARIYQANGTPLGQGHGGRANLLLGVENVRQSVDNAIAQALKHSGLSPDDVSRLKVGLALASAEHRTAYDTFLALPHPYATQVLNTDALGACLAVNQGKDAGVVIAGTGSCGLAWQNQTITAYGGHEFPISDQGSGARLGLAALQHTHDVLQGWRAPSALSQSIDDFFCASAAHALAANTLDALQTFSQQAKPGDYAQFARHVFDCAQQDDAVSHALLAQTASEICLLLAAVARHASPRLSLMGSIGLHIRPWLPDEWQSQLAVPMGDALDGARLIACHDYALYSHPLLEHHHHHH”, the “soluble on expression in E. coli” value is listed as “not soluble”.

“MGSDKIHHHHHHMINSYISQQIERNFPYKPTDDQFLALHTLTEFLLSEEPDSLLLMKGYAGTGKTSLVGALVKTLNELKQKTFLLAPTGRAAKVFSGYAGQKAYTIHKKIYRQRAFSNEPTGFMPADNLHKDTLFIVDEASMIANEGLDSFVFGSGRLLDDLIQYVYSGENCRLILMGDVAQLPPVMQTESPALNPEILRGYNLQVWEIALTQVVRQSEDSGILFNATRLRDALRNHTVEIFPKLQLKGFSDFTKVNGDELIEEISSAYSRDGMEETMIISRSNKRATIYNNGIRNRILYREEELSSGDRLMVAKNNYYWTANCKEMDFIANGEIIQVMRVRRVTEMYGFRFADITARFQDYDLEIDLKILLDTLQTDSPALPKELNDKLFYTILEDYEDIPTKAGKMKKMKVDPHYNVVQVKYAYAVTCHKAQGGQWMNVFLDIGYITEEMLGEDFYRWLYTAFTRATHHLYLVNLPDEFVE”: the “soluble on expression in E. coli” value is reported as “not soluble”.

Turning to “MGSDKIHHHHHHMCSVSGVLILNPKNFEKVELKLASILKKAEDRGRDSFGIVVIQKDGTVKVRKSIGKPSEKEELLYGILDEDSRVVIANNRAEPTTEYVRQKTEDDIQPFIGDRYIVTHNGIIANDLELEKKYELKRKTKIDSAILPLLLDKTWDGNLEALKGILEQIKGSFALVIGDKKNPDRIFLAQNFKPLYMAYDHSLESLFFTSLDEYFDAKPFDPVNITKLEPYSVVMVTSNKLITTLPIMEKRKKYRVLVVASGGLDSTVAATKLLREGHEVTLIHFNYHHKAEEKEREAVRKIAEYLQIPLLEINTDLFKIIGHATLIKGGGEIVKDRKGEEGAEFAHEWVPARNLIFFSVSLAIAEAYGYDAIASGINLEEAGAYPDNEMEFIRMLNKLSPYATGPNKRIEILMPVGNLVKHEIVKLGYEIGAPLHLTWSCYEGGQKHCGKCGPCYMRKMAFRINGLKDPVEYDEE”, the “soluble on expression in E. coli” value is reported as “not soluble”.

Regarding “MAQVFNFSSGPAMLPAEVLKLAQQELCDWHGLGTSVMEISHRGKEFIQVAEEAEQDFRDLLNIPSNYKVLFCHGGGRGQFAGVPLNLLGDKTTADYVDAGYWAASAIKEAKKYCAPQIIDAKITVDGKRAVKPMREWQLSDNAAYLHYCPNETIDGIAIDETPDFGPEVVVTADFSSTILSAPLDVSRYGVIYAGAQKNIGPAGLTLVIVREDLLGKAHESCPSILDYTVLNDNDSMFNTPPTFAWYLSGLVFKWLKAQGGVAAMHKINQQKAELLYGVIDNSDFYRNDVAQANRSRMNVPFQLADNTLDKVFLEESFAAGLHALKGHRVVGGMRASIYNAMPIEGVKALTDFMIDFERRHG”, the “soluble on expression in E. coli” value was “not soluble”.

For “MVTVPEGYEANVIYALGDSINPRVGDWDDNNIPSGPSFQFRSGDCHDGMHYFGLNTSTNRFDETVSAQGLLVMNHEYINQTFLHPKGPTKVDGRRPEDEVIRETNAHGVSVVHIKKDPTTQKVEIVKNSIFNRRITASTVMEFAGAAAGSSLLATRFSPAGRQTRGTHNNCGNGYTPWGTYLTTEENFIGYFQRSGSDEYARTDAEKIALKRYGLGVKKDEPYLYEKDEKGAPKKDKDGKIIYLKDKNGELIPNVDEQGRQIYLGTSSRYGWETAIGQVESQDLYDRWNADVKAAQATQDYRNGPNTFGWMVEIDPFDGRQNPVKRTSLGRFAHEDSACRAVVGQPLAFYMGDDSRGEYIYKFVSTAVWDTKDINGGYTAGDKYMNAGKLYVAKFNNDGSGQWIELAYGKNGLNESNTTYPFKSQADVVTFARLAADSVGATKMDRPEWCTVNPVNGEIYVTLTNNSNRGKDYATDAANPRNYTDLYAGTKEQKGNVNGHIIRFKETDDKTTAETFKWDIYLFGAEASMASNINLSGLTDNNDFSSPDGMWFDPRGVLWIETDDGAYTDVTNCMMLAALPGQIGDGGTLEHHHHHH”, the “soluble on expression in E. coli” value is listed as “soluble”.

“GMDETPIFKIKKLTIAENDRSEYIRYAEKNMHDSIPAEEGTLLIGSGHDDAHGEDNYEIEVFRNKGAEDLHIAGSHADDFVETVNKIATKQKVIDLHPEVITTKAQRALNSYADNFVMRLIKVEVKDADAEKFSHAVKKEMTTSMASEPGMEIMMSGTNIDNPNEWYFIEVYANDEAYDIHVKTPHYKEYIEETDGMVKSRDVKTLVRDTLATQGAIVLD”: the “soluble on expression in E. coli” value is “soluble”.

Turning to “MGSDKIHHHHHHMNKIFKCFPDGKFKVLTMSYDDGKLSDKKLVSIFNKYGIKGTFHINSGLIGSYNRLTKAEIKTLYSGHEVSAHTLTHPTIARCPMEQVTKEILMDRENLEEIVGYPVRGLSYPNGSYNDSIRNLLKYLGIEYSRIVGNSDSFDLPSDFTAWKATCHHNHNLMEHAKEFVFLYKKQYLYMMYVWGHSYEFDRDNNWHLIENFCSYISNKDDIWYATNIEIVDYKNVLDNLKFSAKSDFVYNPSAKSAWITVNDEIVEIKGGTQLKLS”, the “soluble on expression in E. coli” value is “not soluble”.

“MDGAATKFFRPWESHGSYHHSLPSISPPDSPASTSASSSSSSIGANELTTKRRKCERCTCPNCKAIKHGDRGSQHTHLCSVPGCGKTYKKTSHLRAHLRKHTGDRPFVCDWFDCGKRFDRSDQLIRHKRTHTKEYRFACKFCIRQFSRSDHLQQHLTSVHNIVVVD”: the “soluble on expression in E. coli” value is given as “not soluble”.

“NYRSRAAYKLIELDNKYLFLKKNKIILDIGCYPGSWCQVILERTKNYKNKIIGIDKKIMDPIPNVYFIQGEIGKDNMNNIKNINYIDNMNNNSVDYKLKEILQDKKIDIILSDAAVPCIGNKIDDHLNSCELTLSITHFMEQYINIGGTYIVKMYLGSQTNNLKTYLKGMFQLVHTTKPKASRNESREIYLVCKNFLGRKK”: the “soluble on expression in E. coli” value is listed as “soluble”.

“MSIILYTANDGTAQFALQEFGGQLWLTQADMAELYQTTKQNISKHIKTILAEQELEEKATVNFQLTVQNENGRKVNRKIAHYSLPMIIAVGYRVRSARGIQFRQWATERLDEYLTKGFAIDDERLKGTGGGDYWKELLNRIRDIRSSEKALYRQVLDLYATSQDYNPKSSESQTFFAAVQNKLHYAASRQTAAELIYSRADSSKDFMGLTTFQGAIPTLNEAKIAKNYLTEDELFRLNRLVSAFFDLAEIKAQEQSPMYMRDWIAELDKFSGLYGQGTLQGAGSISRKQAEQKAEREYRAYEARILSPVEQAYLESVKALEKTAVQQIKQKKDRTK”: the “soluble on expression in E. coli” value is listed as “not soluble”.

As for “MTQGKGTREGGVLADVSALGPGGHAVVVGGGLAGVTTALALADAGVRVTLLEGRPRLGGLAFSFQRGDLTVDNGQHVYLRCCTAYRWFLDRIGGAALAPVQERLDVPVVDLARTEGNRLGRLRRDALPVPLHLGRSLATYPHLSLAERASVGRAALALKGLDLADPSLDTQDFGSWLTAHGQSARAVEALWDLVGVATLNAVAGDASLGLAAMVFKTGLLSDPGAADIGWARVPLGELHDRLARKALDSAGVRTEVRTRVTSVSVNENGGWSVQVPGETLEADAVVLAVPQREAHDLLPDGALDAPENLLRIGTAPILNIHVIYDRKVLGTPFLTALGTPVQWVFDRTEASGLKEGQYLALSQSTAQNDIDEPVAVLRERYLPELERLLPRTRGAEVKDFFVTRERTATFAPAPGVGRLRPGARTKAPGLYLAGAWTATGWPATMESAVRSGVGAAAAALGALGRSRGLLPDFFEEAALEHHHHHH”, the “soluble on expression in E. coli” value is listed as “not soluble”.

For “MASGKVRCTRKLRSWIVEQVESGHFPGVCWDDAAKTMFRIPWKHAGKQDFREDQDAAIFKAWALFKEKHKDGDIGHPAVWKTRLRCALNKSSEFEEVPERGRMDVAEPYKVYRILPAGTLPNQPRNQKSPCKRSISCVSPEREENMENGRTNGVVNHSDSGSNIGGGGNGSNRSDSNSNCNSELEEGAGTTEATIREDPVFLEHQLPLNSDYSLLLTFIYGGRVVGKTQVHSLDCRLVAERSDSESSMEQVEFPKPDPLEPTQHLLNQLDRGVLVASNSRGLFVQRLCPIPISWNAPEAPPGPGPHLLPSNKCVELFKTTYFCRDLAQYFQGQGPPPKFQATLHFWEESPGSSHSQENLITVQMEQAFARHLLEKIPEEEKAALFLLQHTEQSPSALGH”, the “soluble on expression in E. coli” value is “soluble”.

In the case of “MSLSKIFVTGATGLIGIKLVQRLKEEGHEVAGFTTSENGQQKLAAINVKAYIGDILKADTIDQALADFKPEIIINQITDLKNVDMAANTKVRIEGSKNLIDAAKKHDVKKVIAQSIAFMYEPGEGLANEETSLDFNSTGDRKVTVDGVVGLEEETARMDEYVVLRFGWLYGPGTWYGKDGMIYNQFMDGQVTLSDGVTSFVHLDDAVETSIQAIHFENGIYNVADDAPVKGSEFAEWYKEQLGVEPNIDIQPAQPFERGVSNEKFKAQGGTLIYKTWKDGMNPIKEGHHHHHH”, the “soluble on expression in E. coli” value is on record as “soluble”.

For “MQDLGEVEEDPTELRIDVRHGFDTGPMNVQIAQLMQLATGRRRAPRQSSGSGIQLKIGGRIEVLSYQRKMHEAMKYLLGRLFGGKTVKVNHLAIGCKTILRIPTSFKLHVENLEILDTNTYNNMETVRLMIEASSLPLNMVKFRPTNFTTNNHPIVRTARMLYIHATSTRRRFRDFIEALARLKNIRVHVESRDLSSGSWYMTVFRCWMRYGKKVGTYYTFGTTEETINSAMKVFGRLYGSRTGFDGQITINLKKTSQVVIRKVQQENEWILGMKVESR”, the “soluble on expression in E. coli” value was “not soluble”.

As to “MSFRVSASSSVKPEKDIRIGLLGASGYTGAEIVRLLANHPHFQVTLMTADRKAGQSMESVFPHLRAQKLPTLVSVKDADFSTVDAVFCCLPHGTTQEIIKELPTALKIVDLSADFRLRNIAEYEEWYGQPHKAVELQKEVVYGLTEILREDIKKARLVANPGCYPTTIQLPLVPLLKANLIKHENIIIDAKSGVSGAGRGAKEANLYSEIAEGISSYGVTRHRHVPEIEQGLSDVAQSKVTVSFTPHLMPMIRGMQSTIYVEMAPGVRTEDLHQQLKTSYEDEEFVKVLDEGVVPRTHNVRGSNYCHMSVFPDRIPGRAIIISVIDNLVKGASGQALQNLNIMLGYPETTGLLHQPLFP”, the “soluble on expression in E. coli” value was “soluble”.

Regarding “MGWQTLKQQSVPARKRLLYLHIPFCATHCTFCGFYQNKLRDDSTATYTRYLLQELAMEADSPLHQSAPIHAVYFGGGTPTALAADELSQIIRAIRTSLPLAPDCEITVEGRAMDFDDERIDACLDAGANRFSIGIQTFDTRIRQRMARTSDKQQSIRFLERLCGRDRAAVVCDLMFGLPGQTPEIWREDLAIVSDLPLDGVDLYALNLLPTTPLAKAAENQRVALPDVVARRDFYRTGAAFLADSGWHQLSNSHWARTTRERNLYNLLIKQGADCLAMGSGAGGNINGQAYMMERSLERYYQQIDQGQKPIMMMTPASSTGPWQHQLQAGIEVGRIKLPQLTQHARELQPLLSQWHQAGLTCDDSTCLRLTNDGRFWANNLMQALQQIIPQLNAEEHAHLEHHHHHH”, the “soluble on expression in E. coli” value is recorded as “not soluble”.

The record behind these values is the DeepSol protein solubility set.
